Test [1] deals with EphA2 (Homo sapiens, UniProt P29317). The note with it: read-out: Kd for binding to EphA2; cited from earlier work.
For test [2], the target named is T1, EphB4 (Homo sapiens, UniProt P54760).
T1 sequence (P54760 16-987): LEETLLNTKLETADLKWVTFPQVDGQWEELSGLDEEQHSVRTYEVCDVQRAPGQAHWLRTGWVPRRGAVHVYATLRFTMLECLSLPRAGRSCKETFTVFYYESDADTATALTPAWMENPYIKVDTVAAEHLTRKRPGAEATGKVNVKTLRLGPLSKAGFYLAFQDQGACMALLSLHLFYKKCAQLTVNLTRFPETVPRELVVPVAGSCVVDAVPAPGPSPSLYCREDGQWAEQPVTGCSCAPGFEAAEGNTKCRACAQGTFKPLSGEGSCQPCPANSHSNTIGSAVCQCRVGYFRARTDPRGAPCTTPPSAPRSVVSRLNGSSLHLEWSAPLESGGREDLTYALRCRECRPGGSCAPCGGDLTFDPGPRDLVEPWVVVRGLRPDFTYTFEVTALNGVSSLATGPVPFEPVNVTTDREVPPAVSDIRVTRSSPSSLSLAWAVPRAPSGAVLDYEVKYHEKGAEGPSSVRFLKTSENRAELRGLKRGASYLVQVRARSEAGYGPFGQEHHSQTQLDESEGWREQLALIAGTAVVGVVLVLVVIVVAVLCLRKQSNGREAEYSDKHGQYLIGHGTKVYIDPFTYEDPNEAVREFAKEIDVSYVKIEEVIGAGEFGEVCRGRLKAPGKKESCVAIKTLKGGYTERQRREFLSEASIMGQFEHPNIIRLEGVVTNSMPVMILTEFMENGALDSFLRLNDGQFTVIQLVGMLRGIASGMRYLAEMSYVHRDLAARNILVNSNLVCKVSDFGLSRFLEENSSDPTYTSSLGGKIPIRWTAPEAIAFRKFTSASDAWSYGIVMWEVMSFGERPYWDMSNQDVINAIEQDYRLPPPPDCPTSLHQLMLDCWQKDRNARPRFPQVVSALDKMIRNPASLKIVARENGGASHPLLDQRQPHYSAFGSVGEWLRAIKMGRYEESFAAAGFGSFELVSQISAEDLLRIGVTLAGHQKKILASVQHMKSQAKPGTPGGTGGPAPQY
The note with it: read-out: Kd for binding to EphB4; cited from earlier work.

For test [3], the target named is EphB1. The settings on record: read-out: Kd for binding to EphB1; cited from earlier work.
In test [4] the target is EphA4 (Homo sapiens, UniProt P54764). The settings on record: read-out: Kd for binding to EphA4; cited from earlier work.
The target in test [5] is T2, His-GRIP(PDZ4-6) (rat, UniProt P97879 448-792).
T2 construct: range 448-792; not shown: His tag and vector residues from pRSET
T2 sequence (looked up): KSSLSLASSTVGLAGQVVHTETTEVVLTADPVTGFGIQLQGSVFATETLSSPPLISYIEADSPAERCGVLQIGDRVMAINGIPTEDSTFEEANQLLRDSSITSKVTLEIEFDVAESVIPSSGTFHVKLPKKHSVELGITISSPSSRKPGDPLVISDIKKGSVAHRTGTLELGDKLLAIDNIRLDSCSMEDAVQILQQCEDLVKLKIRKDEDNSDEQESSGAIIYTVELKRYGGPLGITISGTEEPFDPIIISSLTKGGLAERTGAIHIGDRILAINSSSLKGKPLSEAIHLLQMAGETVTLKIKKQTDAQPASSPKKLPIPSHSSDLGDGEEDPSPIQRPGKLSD
In words: displacement of ^35S-EphB2 (50 nM) from His-GRIP-PDZ4-6, Hill fit.

Test [6] deals with T3, His-GRIP-PDZ6 (UniProt P97879 672-754).
T3 construct: domain: PDZ 6; also called GRIP fragment containing only the PDZ 6 domain; PDZ domain 6 of GRIP; not shown: His tag
T3 sequence (looked up): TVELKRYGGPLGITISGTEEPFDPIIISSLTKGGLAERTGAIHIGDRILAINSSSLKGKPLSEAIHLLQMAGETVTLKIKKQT
The experiment in a line: displacement of ^35S-EphB2 from His-GRIP-PDZ6.

Test [7] has as its target EphA3. The settings on record: read-out: Kd for binding to EphA3; cited from earlier work.

EphA4, sequence (P54764 20-986, species assumed): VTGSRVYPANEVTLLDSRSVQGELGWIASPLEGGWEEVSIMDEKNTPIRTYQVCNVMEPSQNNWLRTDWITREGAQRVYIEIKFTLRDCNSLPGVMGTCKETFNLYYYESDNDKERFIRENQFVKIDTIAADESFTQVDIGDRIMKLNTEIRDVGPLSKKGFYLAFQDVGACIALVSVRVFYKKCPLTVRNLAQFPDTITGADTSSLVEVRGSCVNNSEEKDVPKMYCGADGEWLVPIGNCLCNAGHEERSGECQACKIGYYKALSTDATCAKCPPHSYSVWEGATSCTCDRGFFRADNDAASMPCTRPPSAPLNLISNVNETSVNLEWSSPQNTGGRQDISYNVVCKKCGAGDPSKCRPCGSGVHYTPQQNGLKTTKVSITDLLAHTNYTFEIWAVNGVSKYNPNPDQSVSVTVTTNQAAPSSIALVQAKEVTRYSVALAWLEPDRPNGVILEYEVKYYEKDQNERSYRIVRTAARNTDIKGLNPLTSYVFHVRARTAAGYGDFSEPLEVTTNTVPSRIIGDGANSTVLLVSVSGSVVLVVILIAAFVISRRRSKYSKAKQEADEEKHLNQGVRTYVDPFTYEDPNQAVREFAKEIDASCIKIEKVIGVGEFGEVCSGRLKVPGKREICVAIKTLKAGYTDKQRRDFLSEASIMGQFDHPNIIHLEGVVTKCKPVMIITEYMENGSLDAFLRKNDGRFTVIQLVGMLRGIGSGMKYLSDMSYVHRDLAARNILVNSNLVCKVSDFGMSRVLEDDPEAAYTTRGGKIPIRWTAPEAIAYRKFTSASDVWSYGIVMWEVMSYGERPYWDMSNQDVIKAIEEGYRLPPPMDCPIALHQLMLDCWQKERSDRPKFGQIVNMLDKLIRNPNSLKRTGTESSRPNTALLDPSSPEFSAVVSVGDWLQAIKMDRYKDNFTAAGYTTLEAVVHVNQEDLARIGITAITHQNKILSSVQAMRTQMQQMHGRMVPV
EphA2, sequence (P29317 24-976): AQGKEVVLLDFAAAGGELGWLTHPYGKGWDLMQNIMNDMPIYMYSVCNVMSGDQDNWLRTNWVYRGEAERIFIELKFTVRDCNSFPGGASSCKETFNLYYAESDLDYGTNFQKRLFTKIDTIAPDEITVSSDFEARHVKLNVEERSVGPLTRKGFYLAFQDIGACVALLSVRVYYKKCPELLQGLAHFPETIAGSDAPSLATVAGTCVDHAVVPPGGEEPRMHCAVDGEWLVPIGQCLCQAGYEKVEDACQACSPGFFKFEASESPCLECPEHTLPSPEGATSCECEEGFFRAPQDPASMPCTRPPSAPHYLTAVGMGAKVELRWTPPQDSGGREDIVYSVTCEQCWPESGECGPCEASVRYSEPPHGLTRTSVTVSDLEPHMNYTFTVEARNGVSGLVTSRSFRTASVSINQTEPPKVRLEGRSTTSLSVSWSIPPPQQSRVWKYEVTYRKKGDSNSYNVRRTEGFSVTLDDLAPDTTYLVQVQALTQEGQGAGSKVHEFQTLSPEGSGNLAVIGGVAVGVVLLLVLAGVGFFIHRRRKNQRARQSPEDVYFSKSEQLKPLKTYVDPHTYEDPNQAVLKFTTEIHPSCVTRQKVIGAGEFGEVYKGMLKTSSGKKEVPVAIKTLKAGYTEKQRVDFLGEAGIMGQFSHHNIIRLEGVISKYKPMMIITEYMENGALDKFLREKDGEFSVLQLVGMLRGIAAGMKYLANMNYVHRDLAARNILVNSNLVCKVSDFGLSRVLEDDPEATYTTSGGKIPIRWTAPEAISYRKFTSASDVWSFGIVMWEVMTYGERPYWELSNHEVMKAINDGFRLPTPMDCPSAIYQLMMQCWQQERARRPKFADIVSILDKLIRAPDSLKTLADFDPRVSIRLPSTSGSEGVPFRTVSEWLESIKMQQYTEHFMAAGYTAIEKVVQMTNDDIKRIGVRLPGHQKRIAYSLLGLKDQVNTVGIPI

B1: ephrin-A1: a 25 kDa, 205 amino acid glycoprotein; ephrin ligand (protein, UniProt P20827 1-205, looked up)
chain: MEFLWAPLLGLCCSLAAADRHTVFWNSSNPKFRNEDYTIHVQLNDYVDIICPHYEDHSVADAAMEQYILYLVEHEEYQLCQPQSKDQVRWQCNRPSAKHGPEKLSEKFQRFTPFTLGKEFKEGHSYYYISKPIHQHEDRCLRLKVTVSGKITHSPQAHDNPQEKRLAADDPEVRVLHSIGHSAAPRLFPLAWTVLLLPLLLLQTP
modifications: full-length
notes: a 25 kDa, 205 amino acid glycoprotein; ephrin ligand
A word on the Kd: it is a measure of binding affinity in units of concentration. For the molecule B1, in test [1], the Kd was 25 nM.

B2: ephrin-B2: a 38-42 kDa, 333 amino acid glycoprotein; ephrin ligand (protein, UniProt P52799 1-333, looked up)
chain: MAVRRDSVWKYCWGVLMVLCRTAISKSIVLEPIYWNSSNSKFLPGQGLVLYPQIGDKLDIICPKVDSKTVGQYEYYKVYMVDKDQADRCTIKKENTPLLNCAKPDQDIKFTIKFQEFSPNLWGLEFQKNKDYYIISTSNGSLEGLDNQEGGVCQTRAMKILMKVGQDASSAGSTRNKDPTRRPELEAGTNGRSSTTSPFVKPNPGSSTDGNSAGHSGNNILGSEVALFAGIASGCIIFIVIIITLVVLLLKYRRRHRKHSPQHTTTLSLSTLATPKRSGNNNGSEPSDIIIPLRTADSVFCPHYEKVSGDYGHPVYIVQEMPPQSPANIYYKV
modifications: full-length
notes: a 38-42 kDa, 333 amino acid glycoprotein; ephrin ligand
B2: the Kd in test [2] was 0.535 nM.

B3: ephrin-A4: a 201 amino acid polypeptide; ephrin ligand (protein, UniProt P52798 26-170, looked up)
Ephrin-A4: LRHVVYWNSSNPRLLRGDAVVELGLNDYLDIVCPHYEGPGPPEGPETFALYMVDWPGYESCQAEGPRAYKRWVCSLPFGHVQFSEKIQRFTPFSLGFEFLPGETYYYISVPTPESSGQCLRLQVSVCCKERKSESAHPVGSPGES
Turning to B3, the figures for the Kd in test [3] and in test [4] were 20 nM and 5 nM, respectively.

One may read the Ki as a measure of affinity in units of concentration, obtained from inhibition or displacement. Lower therefore signals tighter binding. On to NVYGIESVKI (also called GluR2ct; R2ct) [GluR2 carboxy terminal peptide], for which the values for the Ki in test [5] and in test [6] were 106 nM and 155 nM, respectively.

B4: ephrin-B1: a 45 kDa, 346 amino acid glycosylated polypeptide; ephrin ligand (protein, UniProt P98172 1-346, looked up)
chain: MARPGQRWLGKWLVAMVVWALCRLATPLAKNLEPVSWSSLNPKFLSGKGLVIYPKIGDKLDIICPRAEAGRPYEYYKLYLVRPEQAAACSTVLDPNVLVTCNRPEQEIRFTIKFQEFSPNYMGLEFKKHHDYYITSTSNGSLEGLENREGGVCRTRTMKIIMKVGQDPNAVTPEQLTTSRPSKEADNTVKMATQAPGSRGSLGDSDGKHETVNQEEKSGPGASGGSSGDPDGFFNSKVALFAAVGAGCVIFLLIIIFLTVLLLKLRKRHRKHTQQRAAALSLSTLASPKGGSGTAGTEPSDIIIPLRTTENNYCPHYEKVSGDYGHPVYIVQEMPPQSPANIYYKV
modifications: full-length
notes: a 45 kDa, 346 amino acid glycosylated polypeptide; ephrin ligand
Turning to B4, the Kd in test [3] is 0.925 nM; in test [7], 350 nM.

The record behind these values is patent US20040241754A1, “Modulating neuronal plasticity” (The Salk Institute for Biological Studies, priority 2003, published 2004).
